Laboratory results reported in US20240002500A1 (GUANGDONG FAPON BIOPHARMA, published 2024).

T1: human Tigit extracellular domain recombinant protein hTigit-his (self-produced) (human, UniProt Q495A1 22-141)
T1 construct: extracellular domain; Self-produced; used in the KD analysis of Embodiment 4; also called human Tigit recombinant protein; not shown: his tag
T1 sequence (looked up): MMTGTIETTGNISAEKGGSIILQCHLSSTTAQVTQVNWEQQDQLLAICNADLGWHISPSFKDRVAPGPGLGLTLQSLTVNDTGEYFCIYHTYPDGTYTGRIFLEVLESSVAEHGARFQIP

T2: full-length human TIGIT on cells (human, UniProt Q495A1 22-244)
T2 construct: whole, on cells; The same protein is used for CHO-hTIGIT, PBMC and NK92-hTIGIT; the cells are named under assay; also called CHO-hTIGIT; hTIGIT
T2 sequence (looked up): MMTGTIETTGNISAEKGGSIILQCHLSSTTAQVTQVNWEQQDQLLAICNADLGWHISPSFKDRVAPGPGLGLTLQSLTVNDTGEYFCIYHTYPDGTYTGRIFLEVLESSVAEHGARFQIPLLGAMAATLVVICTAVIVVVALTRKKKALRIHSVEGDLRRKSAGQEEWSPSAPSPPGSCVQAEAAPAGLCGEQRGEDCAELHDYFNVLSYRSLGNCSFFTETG

T3: hTIGIT-hFc (human, UniProt Q495A1 22-141)
T3 construct: also called antigen protein hTIGIT-hFc; human TIGIT recombinant protein carrying a human Fc tag; not shown: human Fc tag
T3 sequence (looked up): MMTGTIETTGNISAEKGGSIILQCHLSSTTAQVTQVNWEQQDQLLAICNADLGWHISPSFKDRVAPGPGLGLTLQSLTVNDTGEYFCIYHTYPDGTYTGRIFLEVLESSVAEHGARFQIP

T4: human Tigit extracellular domain recombinant protein hTigit-his (Acrobiosystem, Cat.TIT-H2H3) (human, UniProt Q495A1 22-141)
T4 construct: extracellular domain; Bought; not shown: his tag
T4 sequence (looked up): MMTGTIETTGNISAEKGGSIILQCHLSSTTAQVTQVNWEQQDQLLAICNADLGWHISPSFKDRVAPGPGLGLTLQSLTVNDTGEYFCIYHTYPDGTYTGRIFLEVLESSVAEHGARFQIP


Legend:
[1] = target: T1, human Tigit extracellular domain …; test: BLI (ForteBIO QKe), hTigit-his on anti-Penta-HIS sensor, antibody in solution
Procedure: Binding kinetic constant analysis was performed on an anti-hTigit antibody and hTigit with an MD ForteBIO QKe platform.

[2] = target: T2, full-length human TIGIT on cells; test: FACS titration on CHO-hTIGIT cells; table under the plot, unit taken from the x axis Log[nM]
Procedure: (§1) The CHO-engineered cells CHO-hTIGIT cells recombinantly expressing full-length human TIGIT to be detected were counted, centrifuged at 300 g for 5 min, resuspended in an FCM buffer and cell density was adjusted to 4E+06 cell/mL for later use. A sample to be detected (including a positive control antibody and a mouse monoclonal antibody) was diluted with the FCM buffer to 20 μg/mL, and then the FCM buffer was used to perform 3× serial dilutions of 12 concentration points; and the isotype control antibody was diluted with the FCM buffer to 20 μg/mL. According to an experimental design, in each well, 50 μL of the antibody and 50 μL of the cell (the amount of each cell added into a 96-well V-shaped plate being 2E+05 cells/well) were respectively added in the 96-well V-shaped plate; and incubation in dark was performed on ice for 30 min. Centrifugation (300 g/5 min) was performed; supernatant was discarded; 200 μL of the FCM buffer was added for washing once; centrifugation (300 g/5 min) was performed; and the supernatant was discarded. […] Centrifugation (300 g/5 min) was performed; supernatant was discarded; 200 μL of the FCM buffer was added once for washing once; centrifugation (300 g/5 min) was performed; and the supernatant was discarded. 100 μL of the 1×PBS was added for resuspending, and on-machine detection was performed.

hTIGIT-hFc = target: T3, hTIGIT-hFc; test: FACS blocking: hTIGIT-hFc bound on U2-OS cells (PVR and CD112), then antibody, APC anti-human IgG Fc; first row of the table, row head not given; unit from the x axis Log[µg/mL]
Procedure: U2-OS cells to be detected (human osteosarcoma cells, naturally and highly expressing PVR and CD112 by means of detection) were counted; centrifugated at 300 g for 5 min; resuspended with an FCM buffer; and cell density was adjusted to 4E+06 cell/mL for later use. […] According to an experimental design, in each well, 50 μL of the antigen protein and 50 μL of the cell (the volume of each cell added into a 96-well V-shaped plate being 2E+05 cell/well) were respectively added in the 96-well V-shaped plate; and incubation was performed in dark on ice for 30 min. Centrifugation (300 g/5 min) was performed; supernatant was discarded; 200 μL of the FCM buffer was added for washing once; centrifugation (300 g/5 min) was performed; and the supernatant was discarded. The antibody was added to the 96-well V-shaped plate (in 100 μL/well); and incubation was performed in dark on ice for 30 min. Centrifugation (300 g/5 min) was performed; supernatant was discarded; 200 μL of the FCM buffer was added for washing once; centrifugation (300 g/5 min) was performed; and the supernatant was discarded. Secondary antibodies (APC anti-human IgG Fc, 1:500 dilution) were added to the 96-well V-shaped plate (in 100 μL/well); and incubation was performed in dark on ice for 30 min. Centrifugation (300 g/5 min) was performed; supernatant was discarded; 200 μL of the FCM buffer was added for washing once; centrifugation (300 g/5 min) was performed; and the supernatant was discarded. 100 μL of the 1×PBS was added for resuspending, and on-machine detection was performed.

[3] = target: T4, human Tigit extracellular domain …; test: BLI epitope binning (ForteBIO QKe), hTigit-his on anti-Penta-HIS sensor; competitor R0300
Procedure: Epitope competition analysis was performed on an anti-human TIGIT antibody with an MD ForteBIO QKe platform. An experimental method included: a human Tigit extracellular domain recombinant protein hTigit-his (Acrobiosystem, Cat.TIT-H2H3, lot-1336-76GF1-F9) carrying a his tag was diluted with an equilibration buffer (1×PBS+0.02% Tween 20), until the final concentration was 1.5 μg/ml. The anti-human Tigit antibody was diluted with the equilibration buffer (1×PBS+0.02% Tween 20), the final concentration being 5 μg/ml. After an anti-Penta-HIS biosensor (ForteBIO, Cat. 18-5122) was fully hydrated, first the hTigit-his recombinant protein was solidified for 180 seconds, then equilibrated for 30 seconds, and bound to the first anti-human Tigit antibody for 180 seconds, then equilibrated for 30 seconds, and then bound to the second anti-human Tigit antibody, binding time being 300 seconds. The whole reaction was performed at 25° C. and 1000 rpm; and finally, Octet analysis software was used to perform epitope binning analysis.

[4] = target: T2, full-length human TIGIT on cells; test: FACS titration on CHO-hTIGIT cells; span of the fitted curve, unit from the y axis
Procedure: as §1

Row | Binder | Kd [1] [nM] | EC50 [2] [nM] | IC50 (hTIGIT-hFc) [µg/mL] | epitope binning signal (name and unit not given) [3] | Span [4] [MFI-PE]
1 | 14Tigit-1-1 mouse monoclonal antibody (antibody, V domains shown, Mouse monoclonal antibody from hybridoma) VH: DVQLQESGPGLVKPSQSLSLTCTVTGYSITSDYAWNWIRQFPGNKLEWMGYISYSGSTRSNPSLKSRISITRDTSKNQFFLQLNSMTAEDTATYYCGGWEVRNYYAMDYWGQGTSVTVSS VL: DIVMTQSHKFMSTSVGDRVSITCKASQHVSTAVAWYQQKPGQSPKLLIYSASYRYTGVPDRFTGSGSGTDFTFTISSVQAEDLAVYYCQQHYNTPWTFGGGTKLEIKR | 0.172 | – | – | – | –
2 | 3Tigit-16 mouse monoclonal antibody (antibody, V domains shown, Mouse monoclonal antibody from hybridoma) VH: EVQLQQSGPELVKPGASVKMSCKASGFTFTDYFMDWVKQSRGASFEWIGRLNPNNGRTSYNQKFKGKATLTVDKSSSTAYMELNSLTSEDSAVYYCARGDLGRWYFDVWGAGTTVTVSS VL: QIVLTQSPAIMSASPGEKVTMTCSASSSVSYMHWYQQKSGTSPKRWIYDTSKLASGVPTRFSGSGSGTSYSLTISSMEAEDAASYFCQQWSSNSLTFGAGTKLELKR | 0.202 | 0.294 | 0.636 | 0.0157 | 34600
3 | 3Tigit-29 mouse monoclonal antibody (antibody, V domains shown, Mouse monoclonal antibody from hybridoma) VH: EVQLQQSGPELVKPGASVKISCKASGYTFTDYNMHWVKQSLGKSLEWIGYVNSFNGNTGYSQKFKSKVTLTVDRSSRTAYMDLRSLTSEDSAVFYCARSSRGGFAYWGQGTLVTVSA VL: QIVLTQSPAIMSASPGEKVTMTCSASSSVSYMHWYQQKSGTSPKRWIYDTSKLASGVPARFSGSVSGTSYSLTISSMEAEDAATYYCQQWSSNSLTFGAGTKLELKR | 0.155 | 0.31 | 0.628 | 0.0254 | 30600

Binders with a lower Kd [1], results first:

Row | Kd [1] [nM] | EC50 [2] [nM] | IC50 (hTIGIT-hFc) [µg/mL] | epitope binning signal (name and unit not given) [3] | Span [4] [MFI-PE] | Binder
4 | 0.119 | – | 0.543 | 0.0196 | – | 3Tigit-12 mouse monoclonal antibody (antibody, V domains shown, Mouse monoclonal antibody from hybridoma) VH: QVQLQQSGAELVRPGTSVKMSCKAAGYTFTNYWIGWVKQRPGHGLEWIGDIYPGGGYTNYDEKFKGKATLTADTSSRTAYMQLSSLTSEDSAIYHCVNGGYGSTYGYFDVWGAGTTVTVSS VL: DIVMSQSPSSLPVSVGEKVTMSCKSSQSLLFSSDQKNYLAWYQQKPGQSPKLLIYWASTRESGVPDRLTGSGSGTDFTLTISSVKAEDLAVYYCQQYHKYPFTFGGGTKLEIKR
5 | 0.0605 | 0.256 | – | 0.668 | 21000 | Tigit-5 mouse monoclonal antibody (antibody, V domains shown, Mouse monoclonal antibody from hybridoma) VH: QVQLQQPGAELVRPGASVKLSCKASGYSFTSYWMNWVKQRPGQGLEWIGMIRPSDSETRLNQMFKDKATLTVDKSSSTAYMQLSSPTSDDSAVYYCAGIHDYGHGAYWGQGTLVTVSA VL: DIQMIQSPASLSVSVGETVTITCRASENIYSNLAWYQQKQGKSPQLLVYAASHLPDGVPSRFSGSGSGTQYSLKINSLQSEDFGSYYCQHFWGTPRTFGGGTKLEIKR
